Columns and labels:
[1] = molecular target: T1, Nt-GCGR-hFc (human, UniProt P47871 26-136); experiment: ELISA with a titration of biotin-Nt-GCGR (x axis) against the mAbs, OD620
T1 construct: domain: N-terminal domain; also called Nt-GCGR-Fc; recombinant N-terminal domain of GCGR; not shown: hFc

[2] = molecular target: human Nav1.7 (full length) (human) (UniProt Q15858); experiment: cell-based or functional assay
[3] = molecular target: T2, hNav1.5-B1-C1-D1-llFc (human); experiment: binding ELISA; the panel prints no target, by paragraph 288 and paragraph 555 the coated hNav1.5 loop B1-C1-D1-llama Fc
T2 construct: also called Nav1.5 extracellular loop B1-C1-D1 llamaFc chimera
T2 chain: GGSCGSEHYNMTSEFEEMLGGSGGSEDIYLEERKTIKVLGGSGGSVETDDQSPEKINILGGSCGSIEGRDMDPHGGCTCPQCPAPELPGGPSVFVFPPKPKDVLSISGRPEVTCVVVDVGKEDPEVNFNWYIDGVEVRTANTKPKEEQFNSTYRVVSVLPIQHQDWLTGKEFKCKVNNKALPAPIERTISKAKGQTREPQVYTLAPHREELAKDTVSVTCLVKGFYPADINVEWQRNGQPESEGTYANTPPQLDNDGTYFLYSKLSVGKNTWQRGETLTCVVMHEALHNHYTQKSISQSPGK
Source text: The therapeutic potency of an anti-hNav1.7 antibody will highly depend on the lack of binding to other Nay family members. Of particular interest is hNav1.5, which is expressed on cardiac muscle cells. As such, cross-reactive binding of hNav1.7 antibodies to hNav1.5 could lead to heart failure. To assay the specificity of the mAbs derived from DNA immunization for hNav1.7, the corresponding loopA3 and loopB1-C1-D1 sequences of hNav1.5 were cloned as llamaFc chimera and cross-reactivity was determined using a binding ELISA (FIG. 8). All clones, except clone 9A6 and 9H4, show no cross-reactivity to hNav1.5. In addition, cross reactivity for hNav1.2 was tested for the loopA3-binding clones 8A7 and 8B6 using hNav1.2 and hNav1.7 derived monomeric, GST-tagged loopA3 peptides (Abnova, H00006326-Q01 (hNav1.2) and H00006335-Q01 (hNav1.7)). Again, no cross-reactive binding was observed.

[4] = molecular target: T3, RatB1-C1-D1-llFc (rat); experiment: binding ELISA; the panel prints no target, by paragraph 562 the coated rat loop B1-C1-D1-llama Fc
T3 construct: also called rat Nav1.7 loopB1-C1-D1 llamaFc chimera
T3 chain: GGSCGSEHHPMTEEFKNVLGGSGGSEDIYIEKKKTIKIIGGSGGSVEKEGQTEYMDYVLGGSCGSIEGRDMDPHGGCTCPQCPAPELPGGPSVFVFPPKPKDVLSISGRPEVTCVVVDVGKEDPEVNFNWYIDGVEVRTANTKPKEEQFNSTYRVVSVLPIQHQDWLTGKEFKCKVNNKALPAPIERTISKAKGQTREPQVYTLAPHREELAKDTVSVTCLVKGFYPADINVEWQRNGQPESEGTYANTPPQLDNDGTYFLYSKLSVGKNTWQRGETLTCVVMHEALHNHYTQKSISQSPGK

[5] = molecular target: T4, hNav1.7-loopB1-C1-D1-llama Fc (human); experiment: ELISA, coated loop-B1-C1-D1-llama Fc 20 ng/well, mAb titrated
T4 construct: whole entry: loops B1, C1, D1 joined by linkers, llama Fc; also called hNav1.7-loopB1-C1-D1-llfc
T4 chain: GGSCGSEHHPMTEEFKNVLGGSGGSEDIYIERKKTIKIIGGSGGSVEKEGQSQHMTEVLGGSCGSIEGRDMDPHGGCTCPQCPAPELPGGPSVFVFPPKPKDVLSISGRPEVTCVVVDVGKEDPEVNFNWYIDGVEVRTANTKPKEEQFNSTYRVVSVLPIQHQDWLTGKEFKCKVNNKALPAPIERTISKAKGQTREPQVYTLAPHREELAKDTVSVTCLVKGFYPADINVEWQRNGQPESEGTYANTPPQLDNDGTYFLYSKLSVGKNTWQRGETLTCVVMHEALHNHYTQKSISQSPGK
Method: mAbs originating from the loopA3-llama Fc immunization were assayed for their affinity for hNav1.7-loopA3. Therefore, a Maxisorp plate was coated with 10 ng/well of loopA3-llamaFc chimera and incubated overnight at 4° C. The next day, the plate was blocked with PBS+1% casein for 2 hours at RT. Subsequently a concentration gradient of antibodies was applied (range 0.25 pM-66 nM) for another hour. Antibody binding to loopA3 was detected using a HRP-conjugated anti-human Fc antibody (Abcam, Ab7499) (incubation 1 hour at RT, dilution 1/5000 in PBS+0.1% casein), followed by TMB addition and OD620 nm measurement. EC50 values were determined using GraphPad Prism software. For comparison purposes a known hNav1.7-loopA3 binding monoclonal antibody, UCB_932 (US2011/0135662), was tested.
In a next experiment, the binding affinity of the loop-specific mAbs was determined and compared to reference mAbs as described in US2011/0135662 (for loop A3: UCB_932, for loopB1-C1-D1: UCB_983, for loopC3: UCB_1066; US2011/0135662). Affinities were determined using an ELISA with a loop-coating of 10 ng/well (loopA3-llama Fc), 20 ng/well (loop-B1-C1-D1-llama Fc) or 50 ng/well (loopC3-llama Fc). The remainder of the experimental setup was identical to abovementioned binding ELISAs. Most of the mAbs show pM affinity for the respective hNav1.7 extracellular loop they are binding. […] The EC₅₀ for the reference mAbs could not be determined (nd) from the ELISA data available because the binding was too weak.

[6] = molecular target: T5, hNav1.7-loopC3-llama Fc (human); experiment: binding ELISA on coated loop-llama Fc chimera (20 ng/well), OD620
T5 construct: whole entry: loop C3, linker, llama Fc; also called hNav1.7-loopC3-llfc
T5 chain: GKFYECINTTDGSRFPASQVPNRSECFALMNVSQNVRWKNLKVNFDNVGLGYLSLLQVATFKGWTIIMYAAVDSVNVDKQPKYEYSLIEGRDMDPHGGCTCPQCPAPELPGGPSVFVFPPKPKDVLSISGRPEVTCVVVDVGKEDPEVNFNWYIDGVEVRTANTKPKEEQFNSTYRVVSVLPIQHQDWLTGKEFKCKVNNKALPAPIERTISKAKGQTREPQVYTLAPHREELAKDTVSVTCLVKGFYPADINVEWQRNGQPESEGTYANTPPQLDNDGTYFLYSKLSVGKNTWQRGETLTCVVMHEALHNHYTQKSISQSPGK
Method: (§1) For all DNA-immunization derived mAbs the binding affinity for the various hNav1.7-loop-llama Fc chimeras was tested in a binding ELISA. Therefore, a Maxisorp plate (Nunc) was coated with 20 ng/well of hNav1.7-loopA3-llama Fc, hNav1.7-loopB1-C1-D1-llama Fc or hNav1.7-loopC3-llama Fc. Remainder of the ELISA setup is as described above. […] Only at very high concentration minor cross-reactivity is observed for some clones.

[7] = molecular target: T6, hNav1.7-loopA3-llama Fc fusion (human); experiment: as above
T6 construct: also called hNav1.7-loopA3-llFc; loopA3-llamaFc chimera
T6 chain: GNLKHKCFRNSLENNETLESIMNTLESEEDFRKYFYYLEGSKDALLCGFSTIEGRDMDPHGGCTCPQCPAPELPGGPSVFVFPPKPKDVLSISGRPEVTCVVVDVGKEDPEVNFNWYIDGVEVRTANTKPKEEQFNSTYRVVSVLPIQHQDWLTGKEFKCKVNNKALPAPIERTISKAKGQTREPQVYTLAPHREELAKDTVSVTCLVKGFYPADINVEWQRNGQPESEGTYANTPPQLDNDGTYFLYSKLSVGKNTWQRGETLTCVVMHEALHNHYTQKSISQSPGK
Method: as §1

[8] = molecular target: T1, Nt-GCGR-hFc; experiment: mAb binding ELISA on coated Nt-GCGR-hFc
Method: Binding to GCGR- and CXCR4-lipoparticles (negative control) (A) and binding to Nt-GCGR-hFc (B). Lipoparticles were coated at 10 U/well. Nt-GCGR was coated at 1 μg/ml. mAbs were allowed to bind to the coated target at 1 μg/ml.

T1 sequence (P47871 26-136): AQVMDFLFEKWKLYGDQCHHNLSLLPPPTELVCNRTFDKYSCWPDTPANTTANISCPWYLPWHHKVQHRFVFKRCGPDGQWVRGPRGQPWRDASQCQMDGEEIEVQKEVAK

B1: mAb 6A5 (antibody, IgG1, V domains shown)
VH: EVQLQESGGGSVQPGGSLRLSCAASGFTFSANAMTWVRQAPGKGLEWVSAISGTGASTSYADSVKGRFTVSRDNAKNTLYLQVNNLKPEDTAVYRCAKLGGDTWYMEYWAKGTLVTVSS
VL: SYELTQSPSVSVALRQTAKITCGGDNIGSKYVNWYQQKPSQTPVLVIYKDSNRPSGIPERFSGSNSGNTAALTISGAQAEDEADYYCQVWDGSAAVFGGGTHLSVLG
[1]
  binding result: no binding (tested: about 20 ng/ml biotin-Nt-GCGR)

B2: 9H4 (antibody, human IgG1, V domains shown)
VH: EVQLVQPGAELRNPGASVKVSCKASGYIFTSAYIDWVRQAPGQGLEWMGRIDPEDGETRYAHQFRDRVTFTADTSTSTVYAELNSLRSEDTAVYYCAITIEGFWGQGTQVTVSS
VL: ATMLTQSPGSLSVVPGESASISCKTSRSLVHSDGKTYLSWLLQKPGQSPQRLIYQVSNRGSGVPDRFTGSGSGTDFTLKISGVKAEDAGVYYCAQATYYPLSFGSGTRVEIK
[2]
  % inhibition of inward current following P02 voltage protocol, 10 µg/ml: 3.8%
  % inhibition of inward current following P02 voltage protocol, 25 µg/ml: 19.8%
  % inhibition of inward current following P02 voltage protocol, 100 µg/ml: 23.9%
[3]
  binding result: binds
[4]
  binding result: binds
[5]
  EC50: 0.19 nM
[6]
  binding result: binds
[7]
  binding result: binds

B3: mAb 6B7 (antibody, IgG1, V domains shown)
VH: QLQLVESGGGLVQPGGSLRLSCAASGFTFSSNAMTWVRQAPGKGLEWVSAISSTGNSITEADSVKGRFTISRDNAKNMLYLQMNSLKPEDTAVYYCAKLGGDTWYMEYWGQGTQVTVSS
VL: SSALTQPSAVSVSLGQTARITCQGDNFGSIDPHWYQQKPGQDPVVVIYQYNNRPSGIPERFSGLKSGNTATLIISGAQAEDEADYYCQLWDSRAKAVFGGGTHLTVLG
[8]
  binding result: no binding (tested: 1 µg/ml)

B4: mAb 6D8 (antibody, IgG1, V domains shown)
VH: QLQLVESGGGLVQPGGSLRLSCAASGFTFSSNAMTWVRQAPGKGLEWVSAISSTGNSITEADSVKGRFTISRDNAKNMLYLQMNSLKPEDTAVYYCAKLGGDTWYMEYWGQGTQVTVSS
VL: SYELTQSPSVSVALRQTAKITCGGNGIGSKIVHWYQQKPGQAPVLVIYADVRRPSEIPERFSGSNSGDTATLTVSGAQAEDEADYYCQVWDSSANAAVFGGGTHLTVLG
[8]
  binding result: no binding (tested: 1 µg/ml)
